± gives the uncertainty stated by the source.
Test: self-splicing fitness, log relative to wild type (ln ratio); higher = more splicing; Tetrahymena group I intron in knt gene, E. coli kanamycin selection, DiMSum; sequences stand for … in CUCUCU…GGAGGGAAAAGUUAUCAGGCAUGCACCUGGUAGCUAGUCUUUAAACCAAUAGAUUGCAUCGGUUUAAAAGGCAAGACCGUCAAAUUGCGGGAAAGGGGUCAACAGCCGUUCAGUACCAAGUCUCAGGGGAAACUUUGAGAUGGCCUUGCAAAGGGUAUGGUAAUAAGCUGACGGACAUGGUCCUAACCACGCAGCCAAGUCCUAAGUCAACAGAUCUUCUGUUGAUAUGGAUGCAGUUCACAGACUAAAUGUCGGUCGGGGAAGAUGUAUUCUUCUCAUAAGAUAUAGUCGGACCUCUCCUUAAUGGGAGCUAGCGGAUGAAGUGAUGCAACACUGGAGCCGCUGGGAACUAAUUUGUAUGCGAAAGUAUAUUGAUUAGUUUUGGAGUACUCGUGGUCG
Procedure, shortened: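 Colonies from six replicate transformations of E. coli BL21(DE3) were pooled and amplicon-sequenced on an Illumina HiSeq 2500. The library placed an intron with all eight P1ex-region nucleotides randomised inside the knt kanamycin-resistance gene on pET-22b(+), and cells grew overnight at 37°C or 30°C on LB agar with or without 25 μg/mL kanamycin (plus 100 μg/mL carbenicillin, 50 μM IPTG, 0.2% rhamnose). Fitness is the DiMSum error-weighted combination of wild-type-normalised replicate fold changes, kanamycin versus none.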

Sequence | self-splicing fitness (ln) (30 °C) | self-splicing fitness (ln) (37 °C)
CUACAGCAAUAUUACGGGUC | -4.01 ± 0.23 | -2.44 ± 0.21
ACAUAGCAAUAUUACGAUUA | -0.756 ± 0.1 | -0.602 ± 0.14
UCACAGCAAUAUUACGCCCU | -3.66 ± 0.35 | -0.688 ± 0.2
UCGGAGCAAUAUUACGGGUA |  | -1.76 ± 0.45
GGAUAGCAAUAUUACGGCAC | -1.16 ± 0.14 | -0.0176 ± 0.17
UCACAGCAAUAUUACGGUCG | -0.0254 ± 0.054 | 0.119 ± 0.061
ACUGAGCAAUAUUACGGGGG | -3.19 ± 0.16 | -2.17 ± 0.17
UAAGAGCAAUAUUACGCAUA | -1.8 ± 0.39 | -1.59 ± 0.3
GAGUAGCAAUAUUACGUAGC | -2.44 ± 0.34 | 
GAAGAGCAAUAUUACGCACG | -2.22 ± 0.1 | -1.71 ± 0.16
CUAUAGCAAUAUUACGGGUA | -2.54 ± 0.19 | -2.34 ± 0.21
GUUCAGCAAUAUUACGCGGG | -2.32 ± 0.14 | -0.613 ± 0.1
CCGGAGCAAUAUUACGCGAU | -3.82 ± 0.27 | -2.62 ± 0.33
GCGCAGCAAUAUUACGUCGA | -0.665 ± 0.09 | 0.801 ± 0.13
UUGCAGCAAUAUUACGCUGA | -3.27 ± 0.26 | -1.68 ± 0.17
AACGAGCAAUAUUACGUGUC | -2.08 ± 0.11 | -2.17 ± 0.23
UAAAAGCAAUAUUACGAAAG | -2.21 ± 0.17 | -1.56 ± 0.16
CGCAAGCAAUAUUACGGCAA | -1.41 ± 0.1 | -0.0385 ± 0.081
AAUCAGCAAUAUUACGACCC | 0.168 ± 0.15 | -0.615 ± 0.16
UAAAAGCAAUAUUACGGGCC | -1.68 ± 0.2 | -2.04 ± 0.38

Sequence | self-splicing fitness (ln) (30 °C) | self-splicing fitness (ln) (37 °C)
GAGGAGCAAUAUUACGAACG | -2.65 ± 0.22 | -1.54 ± 0.25
CUGAAGCAAUAUUACGUGCC |  | -1.64 ± 0.49
UUACAGCAAUAUUACGCGGA | -1.6 ± 0.12 | -0.823 ± 0.095
AGCCAGCAAUAUUACGGGCA | -1.78 ± 0.14 | -0.459 ± 0.13
UGAUAGCAAUAUUACGCAUG | -1.23 ± 0.078 | -0.48 ± 0.1
GCCGAGCAAUAUUACGAUAA | -2.07 ± 0.21 | -2.08 ± 0.26
UCUGAGCAAUAUUACGCCGG | -1.96 ± 0.22 | -0.975 ± 0.24
GUAGAGCAAUAUUACGGGAC | -1.46 ± 0.2 | -1.13 ± 0.15
CCUAAGCAAUAUUACGACAA | -3.28 ± 0.22 | -2.54 ± 0.2
CAAUAGCAAUAUUACGCGUC | -4.09 ± 0.25 | -3 ± 0.22
AGACAGCAAUAUUACGCCUA | -1.46 ± 0.16 | -0.402 ± 0.17
GACGAGCAAUAUUACGGGCA | -1.58 ± 0.18 | -2.56 ± 0.29
ACCAAGCAAUAUUACGUUGA | -2.83 ± 0.12 | -2.01 ± 0.11
GCCCAGCAAUAUUACGCGGA | -0.775 ± 0.098 | -0.201 ± 0.12
UCAAAGCAAUAUUACGUGGA | -1.49 ± 0.1 | -1.6 ± 0.11
ACUAAGCAAUAUUACGAGUC | -3.83 ± 0.42 | -2.73 ± 0.2
CGUAAGCAAUAUUACGCCGG | -1.38 ± 0.11 | -1.04 ± 0.14
AUCUAGCAAUAUUACGUUAG | -3.26 ± 0.19 | -2.67 ± 0.24
CUAAAGCAAUAUUACGGUCA | -2.46 ± 0.18 | -1.22 ± 0.2
